The values below are quoted from earlier work in publication PMC10172704 (Poultry Science, 2023).

In one series the test system is Escherichia coli. Particulars: ref Wang et al., 2020.
Another series has as its system Staphylococcus aureus. Particulars: ref Wang et al., 2020.

Read-outs that look alike come from different tables or passages of the source.

B1: Milk lactoferrin: milk lactoferrin; literature MICs, also after proteolytic digestion by pepsin (protein, UniProt P02788 20-710, looked up)
Lactotransferrin: GRRRSVQWCAVSQPEATKCFQWQRNMRKVRGPPVSCIKRDSPIQCIQAIAENRADAVTLDGGFIYEAGLAPYKLRPVAAEVYGTERQPRTHYYAVAVVKKGGSFQLNELQGLKSCHTGLRRTAGWNVPIGTLRPFLNWTGPPEPIEAAVARFFSASCVPGADKGQFPNLCRLCAGTGENKCAFSSQEPYFSYSGAFKCLRDGAGDVAFIRESTVFEDLSDEAERDEYELLCPDNTRKPVDKFKDCHLARVPSHAVVARSVNGKEDAIWNLLRQAQEKFGKDKSPKFQLFGSPSGQKDLLFKDSAIGFSRVPPRIDSGLYLGSGYFTAIQNLRKSEEEVAARRARVVWCAVGEQELRKCNQWSGLSEGSVTCSSASTTEDCIALVLKGEADAMSLDGGYVYTAGKCGLVPVLAENYKSQQSSDPDPNCVDRPVEGYLAVAVVRRSDTSLTWNSVKGKKSCHTAVDRTAGWNIPMGLLFNQTGSCKFDEYFSQSCAPGSDPRSNLCALCIGDEQGENKCVPNSNERYYGYTGAFRCLAENAGDVAFVKDVTVLQNTDGNNNEAWAKDLKLADFALLCLDGKRKPVTEARSCHLAMAPNHAVVSRMDKVERLKQVLLHQQAKFGRNGSDCPDKFCLFQSETKNLLFNDNTECLARLHGKTTYEKYLGPQYVAGITNLKKCSTSPLLEACEFLRK
B1: the MIC in the series on Escherichia coli (after proteolytic digestion by pepsin) is 65 mg/mL; in the series with Escherichia coli it was 130 mg/mL; with Staphylococcus aureus it was 260 mg/mL.

By MIC is commonly meant the lowest concentration found to suppress growth.
